Assay: soluble on expression in E. coli; label from the status in PepcDB or PDB records

Sequence: MGSDKIHHHHHHMAELNKTKVRKELRTERPSIYSFELDEIKQWLTDNGEKPFRAAQIFEWLYEKRVSSFEDMTNLSKDLREKLNTRFVLTTLKTAVKQTSQDGTMKFLFELHDGYTIETVLMRHEYGNSVCVTTQVGCRIGCTFCASTLGGLKRNLEAGEIVAQVVKVQKALDETDERVSSVVIMGIGEPFDNFNEMLAFLKIINHDKGLNIGARHITVSTSGIIPKIYEFADQQMQINFAISLHAPNTEIRSRLMPINRAYKLPDLMEAVKYYINKTGRRISFEYGLFGGVNDQVEHAEELADLLEGVKCHVNLIPVNYVPERDYVRTPRDQIFAFEKTLKSRGVNVTIRREQGHDIDAACGQLRAKERQDETR
- soluble on expression in E. coli: not soluble

Sequence: MSLTETQSLELAKELISRPSVTPDDRDCQKLMAERLHKIGFAAEEMHFGNTKNIWLRRGTKAPVVCFAGHTDVVPTGPVEKWDSPPFEPAERDGRLYGRGAADMKTSIACFVTACERFVAKHPNHQGSIALLITSDEEGDALDGTTKVVDVLKARDELIDYCIVGEPTAVDKLGDMIKNGRRGSLSGNLTVKGKQGHIAYPHLAINPVHTFAPALLELTQEVWDEGNEYFPPTSFQISNINGGTGATNVIPGELNVKFNFRFSTESTEAGLKQRVHAILDKHGVQYDLQWSCSGQPFLTQAGKLTDVARAAIAETCGIEAELSTTGGTSDGRFIKAMAQELIELGPSNATIHQINENVRLNDIPKLSAVYEGILVRLLAGNAVEGGSHHHHHH
- soluble on expression in E. coli: soluble

Sequence: GPGSMYHGNGSVNDAADASFCPQPSPTRPSREAPPSAPPPTGRVTRTQALARLLRGEGSSTHTKPVRAPGNDAKELKVSETRKECVVGEVQADAPPKKSEGTSSHAAVPLAASATITPDDRDDIGAALQEIGDASRRHRRHSHDAEGTSGDAVRDDASDGGAANMSDDYNGDDNSESTCSARRSGAGSAPAEGFSAHPTHARARGRAVSTRQAANALPRMLALQRSFEAEAKHLYEYCGTHVVEWPTLAVEWIPDRAFVDPERDYTLQYLAIGTQAHPLSGAANAVKVMEVAVPVTAAKDVMYGLYGDDDTAGVEAVDPAREGGIDPGKRFANVKGHFHCEQTLTMDAAVLKIRAMPAETNVIAVKTASGFIGVYNLLQDLTQNEAGRTVPDALLCGHRRGGFGLSWNALKPGFIASAADDGYVNYYDVSHRLTIDVREASDVDPALTGPETQPLERLVGHRDIVTDCCWHSSQGHLLASSSMDGDARLWDIRMSAGSSTIPSAHASGATAAQFHPIGAFQLATAGAEGSISLWDIRRTADPVWELNYHGRPITGLQWSPFCETVMLSYGADGRVVLWDLAKTTLPLGYSEDQLAPPEVSFVHIGHVGRVTDASWNSSTTEEWLLASADTTNGVHVYRPLVNVVQDYRAYQH
- soluble on expression in E. coli: not soluble

Sequence: MGSDKIHHHHHHMSAVLYSNLKFLRFKDQLDALAGGTVAPPVHIRIKPTNRCNHKCWYCAYRTDDLKLGEDMDESDLIPEAKMMEIADDIVAMGVKAVTFSGGGEPLLYKPLPEVIDRLAAGGVRVATLTNGANLKGKVAQSLARHATWVRVSVDAWDDDSYVSSRGAKAGEFTKLLENMKAFVETGTKCVLGVSFIAGKDNYHRLSEVCARFKAIGVNHVKLSAAVVGNSVDENNRYHREFAEGARAEIERAKALSGDGFSVLDHFHEMESRFEKDYHRCPFLQFLTVIGADQTVYTCQDKAYTKEGTLGSIRGRSFRDYWFSEENRQRMAEFDPSRLCRHHCVSHSKNQAIMQYLSIDSEHGLFV
- soluble on expression in E. coli: not soluble

Sequence: MHLNANLKYCCLWKLQSPHSCVPMLVWNCSLHPPSQYCSPLFETAVAENINRLSSHCIKKKSIQRGEKMKQTLRLLGAVTLLGITGCQFNQPPVSSIGAWEKPGADFTEIGKALLECGMPTPYDRDPENDNRSFNQMATIDACMLQAGFRYKYDVGGGMVWKS
- soluble on expression in E. coli: not soluble

Sequence: MSLSKKPCAHIDCELEGGFERSIWIPVRVARLYVKNRPDLPCDWDNFREAVQLIERQCALTMVTEMLSRRDHATGEVCDKLARYGFHQPAIDFAVERATEYHFLDENRFCSYFIEERKRRGWGQRKIETELKRRHVVLDDIPGYPEDYFAVEDDLARASALLAKRRVPETRGFEKLVRFLMGKGFSYHIAADAVKARLDAEREEGHHHHHH
- soluble on expression in E. coli: not soluble

Sequence: MTTFNYTNILTQAVDELSESQSYKGLFHQHKDGDPLPSAKSLYKIVELARAIIFPGYFGNSTVNSHTINYHIGVNVETLFGLLTEQILAGLCFGQENSKNATDDNEPCRETASLLAARFISKLPELRRILATDVEAAYYGDPAATCFGEIISCYPAIRAISNYRIAHELLILGVPLIPRFITEMAHSETGIDIHPGAQIGHHFTIDHGTGVVIGATSIIGNNVKLYQGVTLGAKSFPLDNNGNPIKGIPRHPILEDDVIVYSNATILGRVTIGKGATVGGNIWVTENVPAGSRIVQRKNKDELEHHHHHH
- soluble on expression in E. coli: soluble

Sequence: MAHHHHHHMPGASDRGTAYVSCRIHCLPACFSRAVVAVCKLTSPAPGIPPLVSLCRYGLPGYSAQEGEAFSAAASGLHPRHQLPFVLSRVAASKAIASLSPDKRAACPGEEDGPAVVFTDRREAAPTLHGCCLSIAHEDSAAASVAWSVPSPDSSSFKDYHAAPERLYMEAQLVCSHSTLPDATATSFAYAIDVVNVAEVHRVRSRFPHFGQRWMPQCTTTASADDVGRALTCVQKQHQECVAAVGAPGGSHGGEGVSACQAACRRDEWWKHLVTPYVTEADAYAAVVLAQHWGVRECAVKLVGIPGRSFAYECVRALPPRGGAVVTESTPFTASFLMSHTLYSAEVHGAEAATLAQQRLHPLLYLYTWTEWVPLNSTVDLPYVVVLACAPCRSDAR
- soluble on expression in E. coli: not soluble

Sequence: MELSRGASAPDPDDVRPLKPCLLRRNHSRDQHGVAASSLEELRSKACELLAIDKSLTPITLVLAEDGTIVDDDDYFLCLPSNTKFVALACNEKWTYNDSDGGTAWVSQESFEADEPDSRAGVKWKNVARQLKEDLSSIILLSEEDLQALIDIPCAELAQELCQSCATVQGLQSTLQQVLDQREEARQSKQLLELYLQALEKEGNILSNQKESKAALSEELDAVDTGVGREMASEVLLRSQILTTLKEKPAPELSLSSQDLESVSKEDPKALAVALSWDIRKAETVQQACTTELALRLQQVQSLHSLRNLSARRSPLPGEPQRPKRAKRDSS
- soluble on expression in E. coli: soluble

Sequence: MSLADLTSLSIEHLRSPRLYTHRLILRPWLVQDRARFAELNADPLVMEFFPSCLDRAQSDALLRRIDAHFAEHGFGWWALQVKGGDPFIGYVGLEVVDFDAPFVPAVAIGWRLAAEHWAEGFAHEAAEAALSYAFDTLGLDQVVAFTVPANENSLGLMERLGMHRDPTDDFEHPDLPPGHRLRHHVLYRLTREDWLRREGGSHHHHHH
- soluble on expression in E. coli: soluble

Sequence: MKIISEGETKLMVPEESTLSKKDTVFYNPVMETNRDISVSVVQSFLDDFKRDEFLMCDPLGGSGARGIRYAKELKFNGDLKVSIGDINPSAVKMIKENLKLNELENVEVFHEDANVLLSKNFKVFNVVDLDPFGSPVPYLDSGIRASLTKGGLLCMTATDTAVLCGAYRKTCIRKYNAVPLKGDKELAVRLMIGYAVKMASKYDIGLKPIFSHVTDHYARTFMVTERGAGKADSAIENLGYIRQDSEQKSFKTFEEGSEKGYAGPFYLGEISDKNIVQNALNTAKTRNYSKRAVNILEMISRESEINQVGCFDIHELCSFIKKLVPPVNDIMENLKENGFKVTRVHYNPYGLKTDAELSDLVVLISEYHSKKYLEHHHHHH
- soluble on expression in E. coli: not soluble

Sequence: SDPVDYQAEDATIVQGAVESNHAGYTGTGFVNYDNVAGSSVEWTVTVPSAGTYDVVVRYANGTTTSRPLDFSVNGSISASGVAFGSTGTWPAWTTKTVRVTLAAGVNKIKAVATTANGGPNVDKITL
- soluble on expression in E. coli: soluble

Sequence: MSKLAEFREAERKLQEQLALLEKLKSDSSLKQELEFKDKLQALMDKYGMTLHNIIAILDPKAPVTVSAAPQRRARALKVYKNPNNGEVVETKGGNHKVLKAWKEQYGSETVESWLQR
- soluble on expression in E. coli: not soluble

Sequence: MGSDKIHHHHHHMYLDVIEPDHPDYLTALLVKADLYDTEGLTEVAREKLLEASQISQEPLVIFGLAEIEMNLSDFQAAIQHYAQLDNRAILEETGVSTYERIGRAYASLGKFETAIEFLEKAVEIEFDETTVFEVATLLYDQEEYQRANLYFKQLDSMNPDFAGYEYNYALSLHAEHQTKQALRMLQQGLSKNEFDSQLLLLASQLSYELHDKKAAENYLLKVLETAEDDEEALMRLSNLYLEENRFEDVINLDRADIDSVLTKWNIAKAYQKLEADTKALEIYDTLIVDLADNPDFLKDYIYILRKFGYDEKVKTFADKYLQLVPDDNDIADLREQLQ
- soluble on expression in E. coli: not soluble

Sequence: MRNLVKYAGIGLLVMGLAACDNNDTKASAESAAAESQASGQPISLMDGKLSFSLPADMTDQSGKLGTQANNMHVYSDPTGQKAVIVIVGDNTDEALPVLANRLLEQQRSRDPQLQVVTNKSIELKGHTLQQLDSIISAKGQTAYSSIVLGKVDNQLLTIQVTLPADNQQKAQTTAENIINTLVIK
- soluble on expression in E. coli: not soluble

Sequence: DQLYALFDAFFDEDLSQSPEQATSLGLDTGKHADARSRLSDRSTAAWLRDRAEPAERIARLKTIDRKALSGDDAINYDTALFNYEARQGTSRFDFGDGARPFVLTQFYGSYISTPSFLDGRHKIASAADADAYLGRMKAFATVLDQETQRAGADAAKGVIPADFIVDKAIAQLQQFRSLPVEKNVLVASAARRAKAYGDYDAKAAAILTGEIHPALDRQIAALQAMRAKAVHDAGIGRLKDGDAFYAALLKIYTTTNKTPEEVHRLGLEEGAEIQARMDEILKKRGLTQGTVGQRMARLNTMPGQVFANTDEGRAELLAYCTERLAKLQPLLPQWFGVMPKTPVVVRRVPAYTEAGSAGAYYERPALDGSRPGAVYINLRDTAERPRWSLATLMHHEGAPGHHFQLALVAESNLPKLRQNMGFSANTEGWALYAEQVAMEMGIYDDGDDLGLLGMYQARLFRASRCVVDTGIHAKGWSREKAIAYMIETGGDPEVRVSREVERYCANPGQACSYKVGHTVWAALRERTKQRLGSKFDIKRFHDTALLVGPAPLTVLEGVLDRWQ
- soluble on expression in E. coli: not soluble

Sequence: GMSVAAEVAQVAQSAIDDFNAAYGLCLDDDRLEQWPTLFVDDCLYQVIARENVDNGLPAAVMYCDSKGMLADRVVALRKANVFPEHFNRHLIGRAVITGVEGDQVSAEASYVVFQTRNDGETRIYNAGKYVDRFDLSGGTVRLKSRTCIYDTLRIATLLATPI
- soluble on expression in E. coli: soluble

Sequence: MSKIAIIGATGRAGSQLLEEALRRGHSVTAIARNTAKIGSRAGVVSRDVDVADSAALQAAVAGHDVVISAAHFSSIAANAIIDPVKKAGVKRLLVVGGAGSLLLPGGSKVIDSPGFPEEYKAEASAGGVYLETLRKEQDLDWTFLSPSAEFVEGERTGHFRLGQDDLLVSAEGRSWITFADYAIAMLDEVEKPAHSRQRFTVGYLEHHHHHH
- soluble on expression in E. coli: not soluble

Sequence: MSEPSNNSEKVPDEVQEIRDAENTFNSIQRCTTTLKGFQKSYDELKLQRKQSLQTIRQHEADIQQLEQGIRVHTAAFQLLRRLLSEIRRPNQILQEALQARHIEIEAFDDEAERLNVLIVEERRNLVELQAARKIRKSYLIVFQKQIAQLKAENKDEEATPAQEQMTKKSLKRRRDDEDDETGPSARRAPNSVGAF
- soluble on expression in E. coli: soluble

Sequence: MWLDRRGWLRVLGHWRYDLRRPSFTRTWSGDKGPMAETVSTQVGTEGGLRASHQQNGDAGGDAKVELSPGPPKPAGREVEPAPVGGEHPSAAAPGPGKHKKRRGATRERVVPPPKKRRTGVSFGDEHFAETSYYFEGGLRKVRPYYFDFRTYCKGRWVGHSLLHVFSTEFRAQPLAYYEAAVRAGRLQLNEKPVQDLNIVLKDNDFLRNTVHRHEPPVTAEPIRLLAENEDVVVVDKPSSIPVHPCGRFRHNTVIFILGKEHQLKELHPLHRLDRLTSGVLMFAKTAAVSERIHEQVRDRQLEKEYVCRVEGEFPTEEVTCKEPILVVSYKVGVCRVDPRGKPCETVFQRLSYNGQSSVVRCRPLTGRTHQIRVHLQFLGHPILNDPIYNSVAWGPSRGRGGYIPKTNEELLRDLVAEHQAKQSLDVLDLCEGDLSPGLTDSTAPSSELGKDDLEELAAAAQKMEEVAEAAPQELDTIALASEKAVETDVMNQETDPLCAECRLVRQDPLPQDLVMFLHALRYKGPGFEYFSPMPAWAQDDWQKD
- soluble on expression in E. coli: soluble

— the DeepSol protein solubility set
